# Measured values reported in the DeepSol protein solubility set.
# Assay: soluble on expression in E. coli; label from the status in PepcDB or PDB records
row,Sequence,soluble on expression in E. coli
1,LPIISIDTKQQVIPLVTKEGGKYVKARDNINVDIELRDSPSRSHHLSEKPRIRTKGLISYRGNTSRYFDKKSLKVKFVTNKLKEKKHRLAGMPKESEWVLHGPFLDRTLLRNYLSYNIAGEIMSYAPNVRYCELFVNGEYQGVYLAVENIEQGEQRVPIEKSDKKLHKTPYIVAWDREHKAKQKLDNYVHYTHQSGISALDVKYPGKQRLTSKQLEFINKDINHIEKVLYSYDFSQYPKYIDRESFANYFVINEFFRNVDAGKFSTYLYKDLRDRAKLVVWDFNNAFDNQIEGRVDEADFTLTDAPWFNMLIKDKAFIDLVVHRYKELRKGVLATEYLSNYIDETRHFLGPAIDRNYKKWGYVFDLKNTDPRNYLIPTERNVTSYHKSVEQLKDFIKKRGRWMDRNIETLYQYSAPSKNTNTLLE,not soluble
2,LPKPGVYYFPWEVSDGHVPEGSTLRTFGRLYLYDMARSLMTLAAPQKPDQCQLLVCTNLVEPFEAHVNFLYMVLGDLERMEGGAFVVRARLLTCVEGMDLSLLEKAILEQRRHLQKRQQPIGDASTLQTPTPAPQSIPSD,not soluble
3,LPSSPPAEEAIIDWPVALRQSANKEDLAKEMLGMLVDYLREVETVVNTALEDEEYPASDLLHHIHKLHGSCSYSGVPRLRKICASLEQALRNGASIDELEPELFELQDEMAKVLEASRDYLN,not soluble
4,LQTLPPVQLAQKYFQIFSEEKDPLWQDPCEDKRHKDIWSKEKTCDRFPKLLIIGPQKTGTTALYLFLGMHPDLSSNYPSSETFEEIQFFNGHNYHKGIDWYMEFFPIPSNTTSDFYFEKSANYFDSEVAPRRAAALLPKAKVLTILINPADRAYSWYQHQRAHDDPVALKYTFHEVITAGSDASSKLRALQNRCLVPGWYATHIERWLSAYHANQILVLDGKLLRTEPAKVMDMVQKFLGVTNTIDYHKTLAFDPKKGFWCQLLEGGKTKCLGKSKGRKYPEMDLDSRAFLKDYYRDHNIELSKLLYKMGQTLPTWLREDLQNTR,soluble
5,LRASEIMNRTLDLQIIMDDLLNLLLKEFKLDLAVIRLVDEKGVLRVRSYSGKGIAGIAGKDWEPEIETYIGEAFLSNRLQFVNDTQYMTKPLTRELMQKEGIKSFAHIPISRKGEPPFGILSVFSRTIVGLFNEPFLNLLESLAGQLAQAVKIVTEMEAKEREREEKERILLENA,soluble
6,LSAGALKATASQQDKPESQYGLAGQLQAAAGQQGVTAQQQTRAEAAQQAQLPLQLTKELANEQVAEKVQMMMSKNLKNLDIRLDPPELGRMQIRMTMNNDLANVHFTVTNPQARDIIEQTLPRLREMLAQQGMQLADSSVQQQS,not soluble
7,LSIPEDYQVRLQPTRVAGSYPLVRLEFTGATVDAPLMTQIARKYNIDVSILSSDLDYAGGVKFGMMVAEIFGNADDDEAAIRYLRENNVKVEVLGYVL,not soluble
8,LTCYGDSGQPVDWFVVYKLPALRGSGEAAQRGLQYKYLDESSGGWRDGRALINSPEGAVGRSLQPLYRSNTSQLAFLLYNDQPPQPSKAQDSSMRGHTKGVLLLDHDGGFWLVHSVPNFPPPASSAAYSWPHSACTYGQTLLCVSFPFAQFSKMGKQLTYTYPWVYNYQLEGIFAQEFPDLENVVKGHHVSQEPWNSSITLTSQAGAVFQSFAKFSKFGDDLYSGWLAAALGTNLQVQFWHKTVGILPSNCSDIWQVLNVNQIAFPGPAGPSFNSTEDHSKWCVSPKGPWTCVGDMNRNQGEEQRGGGTLCAQLPALWKAFQPLVKNYQPCNGMARKPSRAYKI,soluble
9,LTFSLNFATSSKDSYGTGWLIDWKGDENKPSNTDPFLIYLATNLHVVDALRNPQDYEPYNKDSNGQDYGNRDITHFFALGKYTD,not soluble
10,LTPIVGPSNFRVQVAADMDFSQVEETREILDNAPVVRNEHTIQNNSIDQIALGVPGSLSNQPPVTGEAATNDSQNTNARSEVNRQYAVGSSVRRTQYQQGQIEKLSVSVLLNSKASPDGVAWSDADKAQISTMITDAVGISAARGDSLSLMSFNF,not soluble
11,MAAASFAPFQDLANLLIPYTHAEKIDGSHDVSHLLRVWKNVCAIRDREGGDARVLMAATLLHDCVSVEKDSPFRAGASRLAAARARELLGDMGWDEESIASVAHAVEAHSFSAAITPVSLEAKILQDADRLDSLGMIGVARTFYVSGRMGKYLYEPNDPHASQRPYDDKRFAVDHFHTKLLHLADGFQTRTGTQMAKVRHDRLKRFLDELMEEIDASRPLEHHHHHH,not soluble
12,MAAEEATEFYLRYYVGHKGKFGHEFLEFEFREDGKLRYANNSNYKNDTIIRKEVFLTPAVLKECKRIVSESEILKEDDNNWPEPDRVGKQELEIVLGNEHISFATSKIGSLVDCQSSNDPEGLRIFYYLVQDLKCLVFSLISLHFKIKPILEHHHHHH,not soluble
13,MAAEIKQGDHKFYVGDDENNPKAVITFKEVDNNEIDIDHTGVSDELGGQGLGKKLVNRVVEHARENNLKIIASCPFAKNVLEKDDHAQDVYLGLEHHHHHH,soluble
14,MAAELVQLNPGQQVERWSIEKKLGEGGFGAVYRVFDATGKYAMKVEGANEQIQVLKLEVSVLNKLSKRGNRHFCKIEDKGRFGNFNYVVMTLVGKSLQDLNKAGVGGHMSMGCSIGIGIQSLEALEDLHNIGYLHRDVKPGNYTIGRPELNEIRKVYILDFGMCRKFTGNDGTIRKPRQAAGFRGTVKYAPISCHLQRELCRKDDLETWMYMQVELSHGTIPWQYISDMNQVGQAKQAIRNNLGSLFPPPCPHQFQDIMRMVDAMKYYDAPNYQAIYGMMRQAYGACGSNENAPYDWENGGPAAYLLH,not soluble
15,MAAERKTKLSKNLLRMKFMQRGLDSETKKQLEEEEKKIISEEHWYLDLPELKEKESFIIEEQSFLLCEDLLYGRMSFRGFNPEVEKLMLQMNAKHKAEEVEDETVELDVSDEEMARRYETLVGTIGKKFARKRDHANYEEDENGDITPIKAKKMFLKPQD,soluble
16,MAAHSFPLLRLPPKNLASVLRQVEIIEQIGLSLLSNKTKEYIRKFCDFKGFELSVWLHPYAVELELFKNGEGATHCSFRDGRACEHNEYPDGFTFDASQFFDMKSCLKHLLYILNPSKIAFLFYIQSNEVSDESQFQMTVDCLKGVKILKFSAKCIPQMNHIVRLVNAFPQTNRLSLVKNSNQPFQLSTLRQILHRKIQKLNLVIDITLNELLLNNSATSDFYSERLRGKDINLFLKHWAAGLKPELEYISFQISAVNFVESTILAGIPH,not soluble
17,MAAKPKLYYFNGRGRMESIRWLLAAAGVEFEEEFLETREQYEKMQKDGHLLFGQVPLVEIDGMMLTQTRAILSYLAAKYNLYGKDLKERVRIDMYADGTQDLMMMIAVAPFKTPKEKEESYDLILSRAKTRYFPVFEKILKDHGEAFLVGNQLSWADIQLLEAILMVEELSAPVLSDFPLLQAFKTRISNIPTIKKFLQPGSQRKPPPDGPYVEVVRIVLKF,soluble
18,MAALIRNLGARAAVAALSAKHVVPAAGSTALRMASTTPVEPKKADKPTVRQPDAVARSHLSDFGRYVAECLPKYVQKVQLTAGDELEVLIAPEGVVPVLQFLKDHHQAQFTNLVDIAGVDVPCRKNRFEVVYNLLSLRYNSRIRVKTYTDELTPLDSACEVHKAANWYEREIWDMYGVFFANHPDLRRILTDYGFEGHPQRRDFPLSGYVELRYDDEKKRVVCEPLELAQEFRKFDLSAPWEQFPNFRNANPPAEVVPPQAPAKK,not soluble
19,MAANKPKGQNSLALHKVIMVGSGGVGKSALTLQFMYDEFVEDYEPTKADSYRKKVVLDGEEVQIDILDTAGQEDYAAIRDNYFRSGEGFLCVFSITEMESFAATADFREQILRVKEDENVPFLLVGNKSDLEDKRQVSVEEAKNRAEQWNVNYVETSAKTRANVDKVFFDLMREIRARKMEDSKEKNGKKKRKSLAKRIRERCCIL,soluble
20,MAASAWCCLRCCRDGGTGHIPLKEMPAVQLDTQHMGTDVVIVKNGRRICGTGGCLASAPLHQNKSYFEFKIQSTGIWGIGVATQKVNLNQIPLGRDMHSLVMRNDGALYHNNEEKNRLPANSLPQEGDVVGITYDHVELNVYLNGKNMHCPASGIRGTVYPVVYVDDSAILDCQFSEFYHTPPPGFEKILFEQQIF,soluble
